Measurements taken from PMC3839042 (Biochemistry, 2013).
Like-named read-outs stand apart in the source and are kept apart here.

B1: human S100P (natural protein, UniProt P25815 1-95, looked up)
chain: MTELETAMGMIIDVFSRYSGSEGSTQTLTKGELKVLMEKELPGFLQSGKDKDAVDKLLKDLDANGDAQVDFSEFIVFVAAITSACHKYFEKAGLK
B2: human S100A2 (natural protein)
chain: not shown
B3: human S100B (natural protein, UniProt P04271 1-92, looked up)
chain: MSELEKAMVALIDVFHQYSGREGDKHKLKKSELKELINNELSHFLEEIKEQEVVDKVMETLDNDGDGECDFQEFMAFVAMVTTACHEFFEHE

Legend:
[1] = target: B3; assay: other fluorescence titration
[2] = target: B2; assay: other fluorescence titration
[3] = target: B1; assay: ITC
[4] = target: B2; assay: ITC
[5] = target: B3; assay: ITC
[6] = target: B1; assay: other fluorescence titration
[7] = target: T1, TRTK12 wild-type peptide (Ac-…-NH2) (N-terminus acetylated; C-terminus amidated); assay: ITC
[8] = target: T1, TRTK12 wild-type peptide (Ac-…-NH2); assay: other fluorescence titration
[9] = target: T1, TRTK12 wild-type peptide (Ac-…-NH2); assay: stopped-flow fluorescence
[10] = target: T1, TRTK12 wild-type peptide (Ac-…-NH2); assay: stopped-flow fluorescence; remark: listed apart in the source
[11] = target: T1, TRTK12 wild-type peptide (Ac-…-NH2); assay: other fluorescence titration; remark: listed apart in the source
[12] = target: T1, TRTK12 wild-type peptide (Ac-…-NH2); assay: ITC; remark: listed apart in the source
[13] = target: T1, TRTK12 wild-type peptide (Ac-…-NH2); assay: other fluorescence titration; remark: listed apart in the source
[14] = target: T1, TRTK12 wild-type peptide (Ac-…-NH2); assay: stopped-flow fluorescence; remark: listed apart in the source
[15] = target: T1, TRTK12 wild-type peptide (Ac-…-NH2); assay: stopped-flow fluorescence; remark: listed apart in the source
[16] = target: T1, TRTK12 wild-type peptide (Ac-…-NH2); assay: ITC; remark: listed apart in the source

| Kd [1] [µM] | Kd [2] [µM] | Kd [3] [µM] | Kd [4] [µM] | Kd [5] [µM] | Kd [6] [µM] | Binder | other results |
| --- | --- | --- | --- | --- | --- | --- | --- |
| 0.2 ± 0.1 | 16 ± 1 | 2 ± 0.5 | 15.2 ± 1 | 2.9 ± 1 | 7 ± 3 | Ac-ARTKIDWNKILS-NH2 [TRTKM1 (Ac-ARTKIDWNKILS-NH2)] | – |
| – | – | – | – | – | – | B1 | Kd [7]: 5.1 ± 0.3 µM; Kd [8]: 11 ± 1 µM; koff [9]: 286 s⁻¹; kon [9]: 5.6e+07 M⁻¹ s⁻¹ |
| – | – | 43.1 ± 3.9 | – | – | – | Ac-TRTKIDWNKALS-NH2 [TRTKM10 (Ac-TRTKIDWNKALS-NH2)] | – |
| 2 ± 1 | 17 ± 4 | 7.1 ± 0.5 | 45 ± 2 | 1.7 ± 0.1 | 30 ± 10 | Ac-TRTKIDWNAILS-NH2 [TRTKM9 (Ac-TRTKIDWNAILS-NH2)] | – |
| 5 ± 1 | 23 ± 3 | 7.4 ± 1 | 21.5 ± 4 | 1.3 ± 0.6 | – | Ac-TRTKIAWNKILS-NH2 [TRTKM6 (Ac-TRTKIAWNKILS-NH2)] | – |
| 10 ± 3 | – | 31.7 ± 0.5 | 504 ± 9.7 | 3.8 ± 1 | – | Ac-TRTKIDWNKIAS-NH2 [TRTKM11 (Ac-TRTKIDWNKIAS-NH2)] | – |
| – | – | – | – | – | – | B2 | koff [10]: ≥ 250 s⁻¹; Kd [11]: 43 ± 9 µM; Kd [12]: 48 ± 3 µM |
| 0.6 ± 0.6 | – | 56.2 ± 4 | 131 ± 6.1 | 1.2 ± 0.4 | 100 ± 23 | Ac-TRTKADWNKILS-NH2 [TRTKM5 (Ac-TRTKADWNKILS-NH2)] | – |
| – | – | – | – | – | – | B3 | Kd [13]: 3 ± 1 µM; koff [14]: 53 s⁻¹; kon [14]: 3.1e+07 M⁻¹ s⁻¹; koff [15]: 86 s⁻¹; Kd [16]: 1.7 ± 0.1 µM |
